Broadly, the Kd is the equilibrium constant for the complex coming apart. A higher Kd goes with a looser complex.

Kd data for 2 sequences are collected here from the Immune Epitope Database (IEDB).

In one experiment the target is HLA-A*03:01. Briefly: IEDB peptide-MHC binding, purified MHC/direct/fluorescence; filed as Kd, often an IC50 or EC50 that approximates it; ≥ and ≤ were set here for values at or beyond the usual limits of such assays.
The target of another experiment is HLA-A*11:01. Described as above.
Experiment [1] deals with HLA-B*27:05. Described as above. The note with it: source organism: Vibrio cholerae.
Experiment [2] has as its target HLA-B*48:01. Described as above. The note with it: source organism: Vibrio cholerae.
Experiment [3] concerns the target HLA-A*01:01. The description is as above. The note with it: source organism: Vibrio cholerae.
The target in another experiment is HLA-B*08:01. The description is as above. The note with it: source organism: Vibrio cholerae V52.
The target of a further experiment is HLA-B*58:01. The description is as above.
The next experiment has as its target HLA-B*40:01. The experiment is described as above.
The target in another experiment is HLA-B*46:01. The description is as above. The note with it: source organism: Vibrio cholerae.
Experiment [4] deals with HLA-B*15:01. The description is as above. The conditions noted are these: source organism: Vibrio cholerae.
The target of experiment [5] is HLA-A*26:01. The description is as above. The note with it: source organism: Vibrio cholerae V52.
In the next experiment the target is HLA-B*08:02. Described as above.
Experiment [6] deals with HLA-A*68:02. Described as above. The note with it: source organism: Vibrio cholerae.
The target in the next experiment is HLA-A*31:01. The description is as above.
Experiment [7] addresses HLA-B*07:02. The experiment is described as above. The conditions noted are these: source organism: Vibrio cholerae.
Experiment [8] concerns the target HLA-B*57:01. Described as above. The note with it: source organism: Vibrio cholerae.
In experiment [9] the target is HLA-B*18:01. The experiment is described as above. The conditions noted are these: source organism: Vibrio cholerae.
Experiment [10] has as its target HLA-A*26:02. Described as above. The conditions noted are these: source organism: Vibrio cholerae V52.
For the next experiment, the target named is HLA-A*02:01. Described as above.
The target in a further experiment is HLA-A*30:01. The experiment is described as follows: IEDB peptide-MHC binding, purified MHC/competitive/fluorescence; filed as Kd, often an IC50 or EC50 that approximates it; ≥ and ≤ were set here for values at or beyond the usual limits of such assays. The conditions noted are these: source organism: Vibrio cholerae 2740-80.
The target in a further experiment is HLA-B*15:17. The experiment is described as above.
The next experiment concerns the target HLA-A*26:03. The experiment is described as above.
Another experiment addresses HLA-A*69:01. The experiment is described as follows: IEDB peptide-MHC binding, purified MHC/direct/fluorescence; filed as Kd, often an IC50 or EC50 that approximates it; ≥ and ≤ were set here for values at or beyond the usual limits of such assays. The conditions noted are these: source organism: Camelpox virus M-96.
Experiment [11] has as its target HLA-B*27:05. The experiment is described as follows: IEDB peptide-MHC binding, purified MHC/competitive/fluorescence; filed as Kd, often an IC50 or EC50 that approximates it; ≥ and ≤ were set here for values at or beyond the usual limits of such assays. The conditions noted are these: source organism: Candida albicans SC5314.
In experiment [12] the target is HLA-B*48:01. The description is as above. The conditions noted are these: source organism: Candida albicans SC5314.
Experiment [13] addresses HLA-A*01:01. The description is as above. The conditions noted are these: source organism: Candida albicans SC5314.
For a further experiment, the target named is HLA-A*02:06. The experiment is described as above. The conditions noted are these: source organism: Candida albicans SC5314.
The target in experiment [14] is HLA-B*15:01. The experiment is described as above. The conditions noted are these: source organism: Candida albicans SC5314.
Experiment [15] has as its target HLA-A*26:01. Described as above. The note with it: source organism: Candida albicans SC5314.
Experiment [16] has as its target HLA-A*68:02. The experiment is described as above. The conditions noted are these: source organism: Candida albicans SC5314.
Experiment [17] deals with HLA-B*07:02. The description is as above. The note with it: source organism: Candida albicans SC5314.
For experiment [18], the target named is HLA-B*57:01. The description is as above. The note with it: source organism: Candida albicans SC5314.
Experiment [19] concerns the target HLA-B*18:01. Described as above. The note with it: source organism: Candida albicans SC5314.
The target of a further experiment is HLA-B*35:01. The description is as above. The note with it: source organism: Candida albicans SC5314.
In experiment [20] the target is HLA-A*26:02. The description is as above. The note with it: source organism: Candida albicans SC5314.
Setting [21] is: source organism: Vibrio cholerae.
Setting [22] is: source organism: Vibrio cholerae 2740-80.
[23] abbreviates: source organism: Camelpox virus M-96.
Where [24] appears, read: source organism: Candida albicans SC5314.

Where only a bound is given, the exact number is not on record here.

Consider AADFPGIAR, for which the Kd was 1 µM in the experiment with HLA-A*03:01 (setting [21]); 0.164 µM with HLA-A*11:01 (setting [21]); not below 20 µM with HLA-B*27:05 [1]; not below 20 µM with HLA-B*48:01 [2]; not below 20 µM with HLA-A*01:01 [3]; not below 20 µM in the experiment with HLA-B*08:01. Also, the Kd with HLA-B*58:01 (setting [21]), with HLA-B*40:01 (setting [21]), in the experiment with HLA-B*46:01, with HLA-B*15:01 [4], with HLA-A*26:01 [5] and in the experiment with HLA-B*08:02 (source organism: Vibrio cholerae V52) was not below 20 µM in each case. For the same sequence, the Kd with HLA-A*68:02 [6] was not below 20 µM; with HLA-A*31:01 (setting [21]), 6.3 µM; with HLA-B*07:02 [7], not below 20 µM; in the experiment with HLA-B*57:01 [8] it was not below 20 µM; in the experiment with HLA-B*18:01 [9] it was not below 20 µM; in the experiment with HLA-A*26:02 [10] it was not below 20 µM. Besides, the Kd with HLA-A*02:01 (setting [21]) was not below 20 µM; with HLA-A*30:01 it was 2.11 µM; with HLA-B*15:17 (setting [22]) it was not below 20 µM; with HLA-A*26:03 (setting [22]), not below 20 µM.
With RVYNNTARY, the Kd is 0.0507 µM with HLA-A*03:01 (setting [23]); 0.0225 µM with HLA-A*11:01 (setting [23]); 0.016 µM in the experiment with HLA-B*58:01 (setting [23]); not below 20 µM in the experiment with HLA-B*40:01 (setting [23]); not below 20 µM in the experiment with HLA-B*08:02 (source organism: Variola virus); 0.432 µM with HLA-A*31:01 (setting [23]). Further, the Kd with HLA-A*69:01 was not below 20 µM; with HLA-A*02:01 (setting [23]), not below 20 µM; with HLA-B*15:17 (setting [24]), 0.0015 µM; with HLA-B*27:05 [11], not below 20 µM; in the experiment with HLA-B*48:01 [12], not below 20 µM; with HLA-A*01:01 [13] it was not below 20 µM. The Kd is not below 20 µM with HLA-A*26:03 (setting [24]); not below 20 µM with HLA-A*02:06; 0.187 µM with HLA-B*15:01 [14]; 0.0768 µM with HLA-A*26:01 [15]; not below 20 µM in the experiment with HLA-A*68:02 [16]; not below 20 µM with HLA-B*07:02 [17]. For the same sequence, the dissociation constant Kd in the experiment with HLA-B*57:01 [18] is 0.655 µM; in the experiment with HLA-B*18:01 [19] it was not below 20 µM; with HLA-B*35:01, 0.159 µM; with HLA-A*26:02 [20] it was 0.528 µM.
